# ± gives the uncertainty stated by the source.
# Test: amyloid nucleation score (Sup35N fusion, yeast selection) (log enrichment); library NNK3; higher = more nucleation; inactive = no reads after selection
# Method in brief: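 Using DiMSum, nucleation scores were taken as the log enrichment of output over input reads, centred on the mode score of non-aggregating sequences. The input and output reads came from Illumina sequencing of plasmid inserts, with sequences under 100 input reads excluded. The yeast were psi-negative, expressed Sup35N fused to peptides of 20 random codons, were induced with 100 μM copper sulfate for 24 hours, and were grown 7 days at 30°C on medium lacking adenine and uracil.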
row,Substance,amyloid nucleation score
1,SRSVSESDVMGTVGIYAEFS,inactive
2,VFLQRCVDYMCDRNCFSVFA,inactive
3,LNVDNCAYVFSDDNFMTDVN,inactive
4,SDGHFLCV,inactive
5,EDLSVNNSAYVFPSLE,inactive
6,PTGGKKVGIASTFSLSVGTV,-0.08 ± 0.27
7,GWWRSFPLQFKSPVYLNRLC,inactive
8,TKGKLLSKHLGFVRCRVHRS,inactive
9,CGCGWVLWPYKYRSDWLGGK,inactive
10,SKVPYPNLVTCVVLCVGFYV,inactive
11,INNAPFNLPLANK,inactive
12,VLYYCGFSITARKSEKLVWP,inactive
13,ISPYIIVPY,inactive
14,LTIRPFEVGRESESGFVLIS,inactive
15,LSIYYEFFLSETNFCYMLRC,0.766 ± 0.15
16,SRWLSDSEIENKWFLISDMT,inactive
17,ITRLNSMAMCYLIRFLS,inactive
18,FSRFIRQ,0.677 ± 0.15
19,RNQFWTWYGVSMLSNRQHGK,inactive
20,ISMSCNYSW,inactive
21,TLLFFCLEQTFNWFIMIQ,inactive
22,SVLFSLYSSLSYV,0.548 ± 0.2
23,LTGACVLNR,0.106 ± 1

row,Substance,amyloid nucleation score
1,YNYFFPYTNVYNIFSIYKAV,3.6 ± 0.078
2,SPLNQVSGYIMFWYSGT,inactive
3,TFFIIIGYVLASGGALGLCR,inactive
4,DAYNVYMMSSRPAHYQGHYL,inactive
5,LLKLRIQIKVWTS,inactive
6,PKFAHSEHVVNSNLFYCVEA,inactive
7,RAFFDTSCGMSLDPSLIPTG,inactive
8,FVRTLCCLAYVWHYDLRYC,0.406 ± 0.31
9,AKSMVWNGGVWYLFQEYARG,inactive
10,SRLIRKMKCVMGSTSSTIGY,inactive
11,DYSFYTFPESAVLCTCSSYG,-0.682 ± 1.1
12,CPESLWNKSYVYAGALTFLR,inactive
13,RTFWNSYWTGMVLRADWIMR,inactive
14,EYGALSTFLRG,-0.337 ± 0.9
15,CMLDKSAIIMTRMECIVLSY,inactive
16,NNVVHEVNFLELRLRVILGY,inactive
17,TRALT,inactive
18,FMPANAFWTKFCSARNRLYI,-0.135 ± 0.57
19,DDLRYRNE,inactive
20,HTGMHCTMGESRTSV,0.375 ± 0.18
21,VECHPCSHFDLHNGRIRDNR,inactive
22,LSLVCNCRSTCNCPGLSL,inactive
23,PILELGGRSFTTWRC,inactive

row,Substance,amyloid nucleation score
1,LFTYVPDFSGLTLSTICCLV,0.458 ± 0.35
2,IMTLFTILVTLMTMCLDQFV,inactive
3,VLDAIVATDRL,inactive
4,SLLALNRSPVLMRYISEHCN,inactive
5,FMYRTDRYHVRGVITWRLSM,inactive
6,THGNMCYEWIPKVPTIISVG,inactive
7,VHSFLKYGGNSAIGLLPEDS,inactive
8,YSDFAWDPRSKNKYGWHPRL,inactive
9,YLVSDE,inactive
10,LQSYRDLQTRFFLFSAHTSL,inactive
11,AHCLTRGSVTPCPLGSRAVR,inactive
12,RSRLCWED,-0.029 ± 0.5
13,RDHWNELGRDYGWTLCKKAY,inactive
14,PRLLRVSAIKSGRCPKGKKS,inactive
15,RISYMSGDYRPSKCACVYAE,inactive
16,CWRVCGARYLWA,inactive
17,LLIQNV,inactive
18,ITGHRNVLIEHMVTTP,inactive
19,YRILINFLSWYLCIYYASCA,inactive
20,VREFYN,inactive
21,NNVTSIN,-0.821 ± 1.1
22,REWCLEVYHWYITRSHVYWC,inactive
23,SIIGASLLNYF,inactive

row,Substance,amyloid nucleation score
1,GRPRVI,inactive
2,ANWIVGC,inactive
3,MAHAFDTR,inactive
4,WYMECTVACSSIICSWKWGL,inactive
5,YLCWAFDTMVSGDRGPRSC,-0.102 ± 0.81
6,QSEALNNFWVGSILSYMVLG,inactive
7,QMRTWSKIYICTKPFL,1.07 ± 0.1
8,KNVFGSSFLLVVSYCNISAF,1.95 ± 0.091
9,PGEHCWRRFLT,inactive
10,KSQMCNMMRRFYLRCIDLRL,inactive
11,RLKCHNNMNYSSYDLH,inactive
12,CSFSISSSGVLWRGKERPIG,1.05 ± 0.18
13,HYTHSNLQAPDPH,inactive
14,SGSNILMEWNCYRARLCRGS,inactive
15,YSQLCFF,inactive
16,HVTIYGPET,inactive
17,DLAINGSAAQTVVLRAERSY,inactive
18,FRYEILTI,0.912 ± 0.12
19,LIRCLVRSNVEFNNMGWWSS,inactive
20,GQAVNYFGGA,inactive
21,ALIHFGIEVKRYICWMQNLV,inactive
22,RRVLTARDWVCH,inactive
23,SRWSGFCIYRGN,inactive

row,Substance,amyloid nucleation score
1,FFFYLPICTLGILYLFDCKA,0.386 ± 0.2
2,VPMFSSLCPYTISLFQGTSP,inactive
3,RSDVI,inactive
4,QEIRTVTGALTDTWIVFICR,inactive
5,YIMCCGV,1.61 ± 0.073
6,HCVTLWLKSYL,inactive
7,WDFGPEVLSE,inactive
8,SKGSWHVFNKGSEWVKYFGM,inactive
9,CVSGDCVMIMFYLFSPVAVV,inactive
10,VAVDIRALFRGRWVMNLARR,-0.75 ± 1.5
11,ALTLMCFSVLGFYYVVMYCF,inactive
12,VYACWIMSNVPSRAVEILYS,inactive
13,CRGLLYISVNYNMILFQHTR,inactive
14,IYSTWET,-0.698 ± 1.5
15,NCRVMITVIYTICNVVFLSC,inactive
16,WYKNYASTRIPMIEWKRILT,inactive
17,FECDKENSSLDSPFMLAFKD,inactive
18,RYLLIPAVGLK,inactive
19,FMIFDWVTYIKVTVKCWW,inactive
20,LYLVKVD,inactive
21,IDVYLGLYMRRVSVLETHCS,2.02 ± 0.087
22,SSRAAVY,inactive
23,SSITVF,inactive

row,Substance,amyloid nucleation score
1,LQLLRIGHWMLPCCWRILLV,inactive
2,EGFIVSRISAGDRSGDMEGC,inactive
3,LFVYSWKRFDGNWNKLSWNR,inactive
4,RVLGKRGGRKH,inactive
5,NVVFV,inactive
6,SMFGLRLIDG,inactive
7,LRLGRTVLYPIVLWLPYCFD,inactive
8,FLPWDFKASKKEPYSKYMNL,inactive
9,WAHLGLDNMYKVLCSRGANA,inactive
10,FCACLERQTSLNF,inactive
11,FQIKT,0.041 ± 0.81
12,SYDVNTDFVLCDYSRDTGSQ,inactive
13,STYDRVKNLYVRRSAVVLPS,inactive
14,ASGDLAGSKLVSYRVATLIN,inactive
15,SLSIVETIGVCL,inactive
16,RKVNHFNE,inactive
17,SASRKNNQDVCGNCAVVGEF,inactive
18,CLQSARYKIFCFFYFDVLSH,inactive
19,ARLVYFFLYGLSCRMHCLCW,inactive
20,EGCSVRRTTHRAQVMRVGWM,inactive
21,HFLFSNQNIRSLNIVFNSRV,2.2 ± 0.073
22,SCSWHFIFCCNGLHMSVKKR,1.66 ± 0.084
23,SLWVSI,inactive

row,Substance,amyloid nucleation score
1,VGRSNH,inactive
2,TFNYYACTPIKFVWYLGTCP,2.54 ± 0.072
3,QGKCDSELRAAAMDI,inactive
4,IVCGISMIS,inactive
5,SVNSVHLMRSSEVGTHEGVG,inactive
6,YYRFLQWSGGNLWTPRWAPC,inactive
7,FTRSLETYYFGKNDVWFSLS,inactive
8,IKQGYRAHLWWIVVNRLMFD,inactive
9,WMCVLCCSVRNIGKTYKSCL,inactive
10,CKDSDSTIPRMLLLRLKTEL,inactive
11,VIFYCFSRILTYKSIVVG,inactive
12,LLIVNWVFRILVYRTTRGLR,inactive
13,CPTCWRYVNIRYSI,inactive
14,ELCEKMFRTIFCFKCRVCMN,inactive
15,MSNMWKEYALALVVGLSFRL,inactive
16,CELAKLVRNDSFRKDNQGYS,inactive
17,HDDISISESIFRRLQIRVIL,inactive
18,IKPCGCSVLDIRT,inactive
19,NEIFIRLLSNMKEPR,1.31 ± 0.14
20,YDLGVAVLNRNSKRSC,inactive
21,YVSPKSIVLIPCYTMRKTRY,inactive
22,FLYYLLMLVRVRCFEQVVIV,inactive

# — the supplement of paper PMC12042874
